Ends that are not written are not given here.
Target: LptDE complex from Shigella flexneri with a hexahistidine tag on LptE (Shigella flexneri, UniProt Q83SQ0;Q0T6Q1)
Assay: native MS

LptDE complex from Shigella flexneri with a hexahistidine tag on LptE, sequence (Q83SQ0 25-784, chain 1 of 2): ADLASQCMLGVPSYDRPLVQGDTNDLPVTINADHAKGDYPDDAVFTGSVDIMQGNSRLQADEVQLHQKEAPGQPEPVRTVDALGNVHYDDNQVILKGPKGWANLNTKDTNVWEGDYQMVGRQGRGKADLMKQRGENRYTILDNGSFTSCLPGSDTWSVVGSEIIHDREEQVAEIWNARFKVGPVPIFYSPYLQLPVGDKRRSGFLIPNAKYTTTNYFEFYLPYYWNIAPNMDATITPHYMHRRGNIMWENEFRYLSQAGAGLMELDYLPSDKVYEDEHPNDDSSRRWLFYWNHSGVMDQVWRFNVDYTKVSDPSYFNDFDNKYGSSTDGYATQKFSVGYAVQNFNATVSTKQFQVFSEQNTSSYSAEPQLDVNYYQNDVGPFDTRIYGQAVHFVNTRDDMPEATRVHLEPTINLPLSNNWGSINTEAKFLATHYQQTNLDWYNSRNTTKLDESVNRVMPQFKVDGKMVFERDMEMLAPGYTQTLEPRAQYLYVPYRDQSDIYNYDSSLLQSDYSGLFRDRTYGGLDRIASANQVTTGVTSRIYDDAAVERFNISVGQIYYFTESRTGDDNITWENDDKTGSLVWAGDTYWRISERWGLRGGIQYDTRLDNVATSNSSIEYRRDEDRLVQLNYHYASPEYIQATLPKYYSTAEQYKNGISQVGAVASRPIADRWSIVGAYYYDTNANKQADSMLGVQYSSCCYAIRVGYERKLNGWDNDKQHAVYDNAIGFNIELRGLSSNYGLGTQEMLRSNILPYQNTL
LptDE complex from Shigella flexneri with a hexahistidine tag on LptE, sequence (Q0T6Q1 19-193, chain 2 of 2): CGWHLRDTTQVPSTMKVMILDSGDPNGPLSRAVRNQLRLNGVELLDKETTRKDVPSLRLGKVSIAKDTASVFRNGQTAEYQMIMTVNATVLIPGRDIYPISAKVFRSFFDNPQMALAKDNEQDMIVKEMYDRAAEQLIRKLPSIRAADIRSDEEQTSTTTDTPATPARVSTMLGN

Binder	stoichiometry N
endogenous E. coli lipoprotein YedD (natural protein) CAEVENYNNVVKTPAPDWLAGYWQTKGPQRALVSPEAIGSLIVTKEGDTLDCRQWQRVIAVPGKLTLMSDDLTNVTVKRELYEVERDGNTIEYDGMTMERVDRPTAECAAALDKAPLPTPLP	1
CGLKGPLYFPPADKNAPPPTKPVETQTQSTVPDKNDRATGDGPSQVNY (natural protein, also: three acyl chains (R1, R2, R3) on N-terminal Cys) [endogenous Escherichia coli lipoprotein YifL]	1

Reference: publication doi:10.1101/2022.12.25.521893 (bioRxiv, 2022)
